Experimental data as given in article PMC10966536.

Tested on: NmPAL (PAS-ANTAR-LOV photoreceptor) (Nakamurella multipartita)
Assay: fluorescence anisotropy
Settings: FA: 4 nM RNA, 12 mM HEPES/HCl pH 7.7, 135 mM KCl, 10 mM NaCl, 1 mM MgCl2, 10% w/v glycerol, 100 ug/mL BSA, dark, or after 60 s blue light (465 nm), temperature …

| Sequence | Kd (blue light, text says 83-fold reduced) | Kd (blue light, two-site fit, high-affinity site (second transition micromolar)) | Kd (darkness, text elsewhere calls this micromolar binding) |
| --- | --- | --- | --- |
| ACCUUCGGUUCAGCUGCGAGCCG [58.M21, TAMRA] | 250 nM | – | – |
| ACCUUCGGUUCAGCAGCGAGCCG [58 (motif 3), TAMRA] | – | 3.5 nM | > 3000 nM |
